Results on 1 molecule are retold here after publication PMC11191887, “Abstracts From the First Annual Research Day Hosted by the Michigan State University College of Osteopathic Medicine, Novi, Michigan, May 15, 2023” (Spartan Medical Research Journal, 2024).

The assay concerns the target T1, House dust mite allergen Der p 2 (Dermatophagoides pteronyssinus, UniProt P49278).
T1 construct: Der p 2, major allergen of the house dust mite Dermatophagoides pteronyssinus; The structure is said to show monomeric Der p 2; No PDB id is printed in the abstract; source: Pichia pastoris, purified
Briefly: crystal structure; purified 4C8 Fab and Der p 2 mixed in a 1:1 molar ratio for crystallization; X-ray, 3.0 Å. The note with it: both partners purified.

T1 sequence (P49278 18-146): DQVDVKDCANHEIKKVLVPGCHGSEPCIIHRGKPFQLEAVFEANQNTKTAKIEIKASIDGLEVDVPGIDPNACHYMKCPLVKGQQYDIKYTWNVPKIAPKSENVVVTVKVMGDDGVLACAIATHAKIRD

B1: human-derived IgE mAb 4C8 Fab (Fab, V domains shown)
VH: EVQLVESGGGLVQPGGSLRLSCAASGFTFSSYAIHWVRQAPGKGLEWVSGLSGGGGDTDYADSVKGRLTISRDNSKKTLFLEMNNLRPEDTAIYYCAKLTGYGSTPGSYMDVWGKGTTVSVSS
VL: SFELTQPPSVSVSPGQTASITCSGDKLGDIYASWYQQKPGQSPVVVIFQDNKRPSGVPERFSGSNSGNTATLTISGTQALDEADYYCQAWDTSTSVFGTGTKVTVL
notes: Fab of a human IgE mAb isolated from hybridomas obtained from a house dust mite allergic patient; also called hIgE mAb 4C8 Fab; source: CHO cells, purified
As to B1, the “stoichiometry N” value was 2.

As a reminder, the stoichiometry N is the number of molecules, sites or subunits per partner or assembly.
